Patent US20180243437A1 (published 2018)

B1: biotin-V21H4 (SEQ ID NO:6) (VHH)
VHH: QVQLVESGGGLVQAGGSLRLSCAASGRAFSSYAMGWFRQAPGKERELVAAISWSDDSTYYANSVKGRFTISRDNAKSAVYLQMNSLKPEDTAVYYCAAHKSLQRPDEYTYWGQGTQVTVSS
modifications: biotinylated (site not stated)
notes: The biotinylation method is not described; also called V21H4 antibody
B2: AB1 with linker 2 (SEQ ID NO:7) (VHH)
VHH: B1 VHH
notes: Llama single domain antibody expressed in E. coli BL21(DE3); The monomer fraction from Superdex 75 was used for SPR; also called VR2-21
B3: AB4 with linker 2 (SEQ ID NO:27) (VHH)
VHH: QVKLEESGGGLVQAGGSLRLSCAASGGTASSYAMGWFRQAPGKEREFVAAISRSGGNTDYVDSAKGRFTISRDDAKNTVSLQMNSLRLEDTAVYYCAARYAGTWPNDAGTVYWLPPNYNYWGQGTQVTVSS
notes: Llama single domain antibody expressed in E. coli; also called VR2-38
B4: human VEGFR-2/Fc (R&D Systems) (Fc fusion)
chain: ASVGLPSVSLDLPRLSIQKDILTIKANTTLQITCRGQRDLDWLWPNNQSGSEQRVEVTECSDGLFCKTLTIPKVIGNDTGAYKCFYRETDLASVIYVYVQDYRSPFIASVSDQHGVVYITENKNKTVVIPCLGSISNLNVSLCARYPEKRFVPDGNRISWDSKKGFTIPSYMISYAGMVFCEAKINDESYQSIMYIVVVVGYRIYDVVLSPSHGIELSVGEKLVLNCTARTELNVGIDFNWEYPSSKHQHKKLVNRDLKTQSGSEMKKFLSTLTIDGVTRSDQGLYTCAASSGLMTKKNSTFVRVHEKPFVAFGSGMESLVEATVGERVRIPAKYLGYPPPEIKWYKNGIPLESNHTIKAGHVLTIMEVSERDTGNYTVILTNPISKEKQSHVVSLVVYVPPQIGEKSLISPVDSYQYGTTQTLTCTVYAIPPPHHIHWYWQLEEECANEPSQAVSVTNPYPCEEWRSVEDFQGGNKIEVNKNQFALIEGKNKTVSTLVIQAANVSALYKCEAVNKVGRGERVISFHVTRGPEITLQPDMQPTEQESVSLWCTADRSTFENLTWYKLGPQPLPIHVGELPTPVCKNLDTLWKLNATMFSNSTNDILIMELKNASLQDQGDYVCLAQDRKTKKRHCVVRQLTVLERVAPTITGNLENQTTSIGESIEVSCTASGNPPPQIMWFKDNETLVEDSGIVLKDGNRNLTIRRVRKEDEGLYTCQACSVLGCAKVEAFFIIEGAQEKTNLE
notes: Bought protein; also called recombinant VEGFR2/Fc; not shown: Fc part; It is captured by goat anti-human IgG-Fc in the ELISA
B5: AB3 with linker 2 (SEQ ID NO:21) (antibody, V domains shown)
VH: QVQLVESGGGLIKPGGSLRLSCAASGDMLSYDVMSWVRQAPGKGLEWVSAISSSGGSTYYADSVKGRFTISRDNSKNTVYLQMNSLRAEDTAVYYCVAAPWRCTHDNCSKTRASWGQGTMVTVSS
notes: Single domain antibody on a human VH scaffold, expressed in E. coli; also called VR2-801-45
B6: AB2 with linker 2 (SEQ ID NO:13) (antibody, V domains shown)
VH: QVQLVESGGGLIKPGGSLRLSCAASGFRFSAESMTWVRQAPGKGLEWVSAISSSGGSTYYADSVKGRFTISRDNSKNTVYLQMNSLRAEDTAVYYCVRSPKGCTHASCSWNSGSWGQGTLVTVSS
notes: Single domain antibody on a human VH scaffold, from a human VH library, expressed in E. coli; also called VR2-801-18

How the values were obtained:
[1] = biological target: B4; experiment: ELISA, captured recombinant VEGFR2/Fc, biotin-V21H4 (FIG. 13A); antibody alone, not conjugate
[2] = biological target: T1, human VEGFR2 (KDR) expressed on 293/KDR cells (human, UniProt P35968 20-1356); experiment: flow cytometry on 293/KDR cells, S/N against biotin-isotype control
[3] = biological target: T1, human VEGFR2 (KDR) expressed on 293/KDR …; experiment: flow cytometry on 293/KDR cells (FIG. 13B)
[4] = biological target: B4; experiment: ELISA on recombinant VEGFR2/Fc, absorbance at 405 nm
[5] = biological target: B4; experiment: SPR (Biacore 3000), immobilized human VEGFR-2/Fc; estimated from transformed data (FIG. 3)
[6] = biological target: T2, mouse VEGFR-2/Fc (R&D Systems) (mouse, UniProt P35918 20-762); experiment: SPR (Biacore 3000), immobilized mouse VEGFR-2/Fc
T2 construct: Bought protein; also called immobilized mouse VEGFR-2/Fc; not shown: Fc part, not described

[7] = biological target: B4; experiment: SPR (Biacore 3000), immobilized human VEGFR-2/Fc
[8] = biological target: T3, AB2-(SEQ ID NO:13) DOS47 antibody-urease conjugate (jack bean (Canavalia ensiformis), UniProt P07374 1-840, cross-linked to the antibody; sites not stated; chemically cross-linked to urease; cross-linker and sites not stated for this conjugate); experiment: ELISA on VEGFR2/Fc captured by anti-human IgG-Fc, conjugate detected with anti-urease [panel AB2-DOS47]
T3 construct: Antibody-enzyme conjugate; also called AB2-DOS47

[9] = biological target: T4, V21H4-DOS47 with 3.3 antibodies per urease (jack bean (Canavalia ensiformis), UniProt P07374 1-840, surface cysteines partly linked through BM(PEG)2 to C136 of V21H4; C136 linked through BM(PEG)2 to a urease cysteine); experiment: ELISA on recombinant VEGFR2/Fc, absorbance at 405 nm, V21H4-DOS47 at different antibody/urease ratios
T4 construct: The conjugation ratio is an average value from SDS-PAGE

[10] = biological target: T5, V21H4-DOS47 with 2.3 antibodies per urease (jack bean (Canavalia ensiformis), UniProt P07374 1-840, surface cysteines partly linked through BM(PEG)2 to C136 of V21H4; C136 linked through BM(PEG)2 to a urease cysteine); experiment: as above
T5 construct: The conjugation ratio is an average value from SDS-PAGE

[11] = biological target: T6, V21H4-DOS47 with 9.4 antibodies per urease (jack bean (Canavalia ensiformis), UniProt P07374 1-840, surface cysteines partly linked through BM(PEG)2 to C136 of V21H4; C136 linked through BM(PEG)2 to a urease cysteine); experiment: as above
T6 construct: The conjugation ratio is an average value from SDS-PAGE

[12] = biological target: T7, V21H4-DOS47 with 1.4 antibodies per urease (jack bean (Canavalia ensiformis), UniProt P07374 1-840, surface cysteines partly linked through BM(PEG)2 to C136 of V21H4; C136 linked through BM(PEG)2 to a urease cysteine); experiment: as above
T7 construct: The conjugation ratio is an average value from SDS-PAGE

[13] = biological target: T8, AB4-(SEQ ID NO:27) DOS47 antibody-urease conjugate (jack bean (Canavalia ensiformis), UniProt P07374 1-840, cross-linked to the antibody; sites not stated; chemically cross-linked to urease; cross-linker and sites not stated for this conjugate); experiment: ELISA on VEGFR2/Fc captured by anti-human IgG-Fc, conjugate detected with anti-urease [panel AB4-DOS47]
T8 construct: Antibody-enzyme conjugate; also called AB4-DOS47

[14] = biological target: T9, AB1-(SEQ ID NO:9) DOS47 antibody-urease conjugate (jack bean (Canavalia ensiformis), UniProt P07374 1-840, cross-linked to the antibody; sites not stated; chemically cross-linked to urease; cross-linker and sites not stated for this conjugate); experiment: ELISA on VEGFR2/Fc captured by anti-human IgG-Fc, conjugate detected with anti-urease [panel AB1-DOS47]
T9 construct: Antibody-enzyme conjugate; also called AB1-DOS47

[15] = biological target: V21H4-DOS47 (V21H4, SEQ ID NO:6, conjugated to jack bean urease through BM(PEG)2) (jack bean (Canavalia ensiformis), UniProt P07374 1-840, C824, C663, C59 and C207 partly linked through BM(PEG)2 to C136 of V21H4; C136 linked through BM(PEG)2 to a urease cysteine); experiment: ELISA on recombinant VEGFR2/Fc, absorbance at 405 nm
[16] = biological target: V21H1-DOS47 (V21H1, SEQ ID NO:3, conjugated to jack bean urease through SM(PEG)2) (jack bean (Canavalia ensiformis), UniProt P07374 1-840, surface cysteines linked through SM(PEG)2 to the antibody; primary amines linked through SM(PEG)2 to urease cysteines; K66 in CDR2 was about 25% of the activated antibody); experiment: as above
V21H1-DOS47 (V21H1, SEQ ID NO:3, conjugated to jack bean urease through SM(PEG)2), sequence (VHH, as listed by the source limits assumed, chain 1 of 2): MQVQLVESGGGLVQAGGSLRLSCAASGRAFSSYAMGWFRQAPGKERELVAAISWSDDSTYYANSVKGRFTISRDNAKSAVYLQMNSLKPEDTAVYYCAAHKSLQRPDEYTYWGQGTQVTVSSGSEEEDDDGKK
V21H1-DOS47 (V21H1, SEQ ID NO:3, conjugated to jack bean urease through SM(PEG)2), sequence (P07374 whole entry, chain 2 of 2): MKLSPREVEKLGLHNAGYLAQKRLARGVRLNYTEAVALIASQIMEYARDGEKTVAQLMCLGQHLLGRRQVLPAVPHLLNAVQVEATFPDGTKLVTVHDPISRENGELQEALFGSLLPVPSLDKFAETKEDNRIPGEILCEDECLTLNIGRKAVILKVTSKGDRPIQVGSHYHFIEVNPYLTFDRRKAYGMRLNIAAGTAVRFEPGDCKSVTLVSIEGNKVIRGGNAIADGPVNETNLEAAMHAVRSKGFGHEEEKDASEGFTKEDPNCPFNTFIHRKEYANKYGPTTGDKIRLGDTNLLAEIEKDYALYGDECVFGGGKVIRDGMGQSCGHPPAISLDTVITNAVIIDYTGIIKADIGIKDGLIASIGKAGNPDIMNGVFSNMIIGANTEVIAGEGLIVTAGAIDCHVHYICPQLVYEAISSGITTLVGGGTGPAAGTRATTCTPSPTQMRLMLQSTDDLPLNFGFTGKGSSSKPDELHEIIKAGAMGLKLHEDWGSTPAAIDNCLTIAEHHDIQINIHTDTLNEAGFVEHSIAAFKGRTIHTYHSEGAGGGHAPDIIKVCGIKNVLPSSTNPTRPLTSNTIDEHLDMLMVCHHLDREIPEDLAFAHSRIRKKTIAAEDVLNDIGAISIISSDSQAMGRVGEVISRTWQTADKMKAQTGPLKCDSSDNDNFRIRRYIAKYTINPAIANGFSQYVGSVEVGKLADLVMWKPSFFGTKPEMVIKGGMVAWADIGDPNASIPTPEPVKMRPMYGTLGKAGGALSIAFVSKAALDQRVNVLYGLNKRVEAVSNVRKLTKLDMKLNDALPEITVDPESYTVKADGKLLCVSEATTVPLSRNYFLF

T2 sequence (P35918 20-762 limits assumed): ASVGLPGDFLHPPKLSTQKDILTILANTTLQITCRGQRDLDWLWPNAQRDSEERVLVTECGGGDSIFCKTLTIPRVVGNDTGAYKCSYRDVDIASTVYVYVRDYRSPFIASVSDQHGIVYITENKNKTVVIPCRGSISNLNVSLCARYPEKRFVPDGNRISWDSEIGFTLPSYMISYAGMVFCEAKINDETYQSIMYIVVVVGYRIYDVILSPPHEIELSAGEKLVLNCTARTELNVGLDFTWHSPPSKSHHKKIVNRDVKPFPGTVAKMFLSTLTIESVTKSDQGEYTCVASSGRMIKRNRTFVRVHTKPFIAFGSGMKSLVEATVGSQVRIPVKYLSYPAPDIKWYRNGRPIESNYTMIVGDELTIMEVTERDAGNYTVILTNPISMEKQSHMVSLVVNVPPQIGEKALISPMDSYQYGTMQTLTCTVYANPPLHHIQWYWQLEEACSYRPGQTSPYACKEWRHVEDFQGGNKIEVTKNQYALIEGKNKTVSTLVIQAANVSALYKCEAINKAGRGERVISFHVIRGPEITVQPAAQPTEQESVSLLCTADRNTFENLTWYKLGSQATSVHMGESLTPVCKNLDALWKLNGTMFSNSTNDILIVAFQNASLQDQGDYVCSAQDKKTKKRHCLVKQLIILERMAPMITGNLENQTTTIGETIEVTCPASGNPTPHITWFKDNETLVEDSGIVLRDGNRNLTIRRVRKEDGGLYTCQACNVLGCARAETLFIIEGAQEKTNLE
T5 sequence (VHH, as listed by the source limits assumed, chain 1 of 2): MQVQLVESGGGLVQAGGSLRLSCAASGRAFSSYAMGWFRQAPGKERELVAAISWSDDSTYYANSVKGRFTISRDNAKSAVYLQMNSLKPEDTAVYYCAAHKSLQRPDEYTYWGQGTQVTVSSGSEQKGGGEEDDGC
T5 sequence (P07374 whole entry, chain 2 of 2): as the sequence (P07374 whole entry, chain 2 of 2) above
V21H4-DOS47 (V21H4, SEQ ID NO:6, conjugated to jack bean urease through BM(PEG)2), sequence (P07374 whole entry, chain 2 of 2): as above
T6 sequence (P07374 whole entry, chain 2 of 2): as above
T4 sequence (P07374 whole entry, chain 2 of 2): as above
T7 sequence (P07374 whole entry, chain 2 of 2): as above
T9 sequence (VHH, as listed by the source limits assumed, chain 1 of 2): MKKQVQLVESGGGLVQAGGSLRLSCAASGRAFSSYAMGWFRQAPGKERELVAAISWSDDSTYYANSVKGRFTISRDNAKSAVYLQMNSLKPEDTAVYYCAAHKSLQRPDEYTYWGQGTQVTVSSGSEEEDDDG
T9 sequence (P07374 whole entry, chain 2 of 2): as the sequence (P07374 whole entry, chain 2 of 2) above
T8 sequence (VHH, as listed by the source limits assumed, chain 1 of 2): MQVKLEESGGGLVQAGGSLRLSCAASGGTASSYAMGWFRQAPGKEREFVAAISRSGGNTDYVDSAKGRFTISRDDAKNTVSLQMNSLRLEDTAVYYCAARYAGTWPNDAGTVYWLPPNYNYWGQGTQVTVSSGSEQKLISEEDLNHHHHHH
T8 sequence (P07374 whole entry, chain 2 of 2): as the sequence (P07374 whole entry, chain 2 of 2) above
T3 sequence (VH, as listed by the source limits assumed, chain 1 of 2): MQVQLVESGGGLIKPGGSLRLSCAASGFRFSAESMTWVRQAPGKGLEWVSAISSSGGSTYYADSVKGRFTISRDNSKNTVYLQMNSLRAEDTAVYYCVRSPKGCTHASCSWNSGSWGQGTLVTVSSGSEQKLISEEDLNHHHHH
T3 sequence (P07374 whole entry, chain 2 of 2): as the sequence (P07374 whole entry, chain 2 of 2) above

B1
EC50 [1]: 1.8 nM | EC50 (read off the curve) [2]: ~2 nM | EC50 [3]: 1.6 nM | EC50 (read off the curve) [4]: ~2 nM

B2
Kd [5]: ~80 nM | koff [5]: < 0.01 s⁻¹ | kon [5]: ~60000 M⁻¹ s⁻¹ | binding result [6]: no binding (tested: 150˜200 nM)

B3
Kd [7]: 80 nM | binding result [6]: no binding (tested: 150˜200 nM)

B4
binding result [8]: binds | binding result [9]: binds | binding result [10]: binds | binding result [11]: binds | binding result [12]: binds | binding result [13]: binds | binding result [14]: binds | binding result [15]: binds | binding result [16]: binds

B5
Kd [7]: 900 nM | koff [7]: 0.045 s⁻¹ | kon [7]: 53000 M⁻¹ s⁻¹ | binding result [6]: no binding (tested: 150˜200 nM)

B6
Kd [7]: 500 nM | koff [7]: 0.02 s⁻¹ | kon [7]: 46000 M⁻¹ s⁻¹ | binding result [6]: no binding (tested: 150˜200 nM)
